The values that follow come from US20230235013A1 (MABSOLVE, published 2023).

The labels stand for the following.
B1: anti-CD20 human IgG1 L234H/L235D/G236R (antibody)
heavy: QVQLQQPGAELVKPGASVKMSCKASGYTFTSYNMHWVKQTPGRGLEWIGAIYPGNGDTSYNQKFKGKATLTADKSSSTAYMQLSSLTSEDSAVYYCARSTYYGGDWYFNVWGAGTTVTVSSASTKGPSVFPLAPSSKSTSGGTAALGCLVKDYFPEPVTVSWNSGALTSGVHTFPAVLQSSGLYSLSSVVTVPSSSLGTQTYICNVNHKPSNTKVDKKVEPKSCDKTHTCPPCPAPEHDRGPSVFLFPPKPKDTLMISRTPEVTCVVVDVSHEDPEVKFNWYVDGVEVHNAKTKPREEQYNSTYRVVSVLTVLHQDWLNGKEYKCKVSNKALPAPIEKTISKAKGQPREPQVYTLPPSRDELTKNQVSLTCLVKGFYPSDIAVEWESNGQPENNYKTTPPVLDSDGSFFLYSKLTVDKSRWQQGNVFSCSVMHEALHNHYTQKSLSLSPGK
light: QIVLSQSPAILSASPGEKVTMTCRASSSVSYIHWFQQKPGSSPKPWIYATSNLASGVPVRFSGSGSGTSYSLTISRVEAEDAATYYCQQWTSNPPTFGGGTKLEIKRTVAAPSVFIFPPSDEQLKSGTASVVCLLNNFYPREAKVQWKVDNALQSGNSQESVTEQDSKDSTYSLSSTLTLSKADYEKHKVYACEVTHQGLSSPVTKSFNRGEC
notes: also called 1-63; copies: 2 + 2
B2: anti-CD20 human IgG1 L234H/L235E/G236R (antibody)
heavy: QVQLQQPGAELVKPGASVKMSCKASGYTFTSYNMHWVKQTPGRGLEWIGAIYPGNGDTSYNQKFKGKATLTADKSSSTAYMQLSSLTSEDSAVYYCARSTYYGGDWYFNVWGAGTTVTVSSASTKGPSVFPLAPSSKSTSGGTAALGCLVKDYFPEPVTVSWNSGALTSGVHTFPAVLQSSGLYSLSSVVTVPSSSLGTQTYICNVNHKPSNTKVDKKVEPKSCDKTHTCPPCPAPEHERGPSVFLFPPKPKDTLMISRTPEVTCVVVDVSHEDPEVKFNWYVDGVEVHNAKTKPREEQYNSTYRVVSVLTVLHQDWLNGKEYKCKVSNKALPAPIEKTISKAKGQPREPQVYTLPPSRDELTKNQVSLTCLVKGFYPSDIAVEWESNGQPENNYKTTPPVLDSDGSFFLYSKLTVDKSRWQQGNVFSCSVMHEALHNHYTQKSLSLSPGK
light: QIVLSQSPAILSASPGEKVTMTCRASSSVSYIHWFQQKPGSSPKPWIYATSNLASGVPVRFSGSGSGTSYSLTISRVEAEDAATYYCQQWTSNPPTFGGGTKLEIKRTVAAPSVFIFPPSDEQLKSGTASVVCLLNNFYPREAKVQWKVDNALQSGNSQESVTEQDSKDSTYSLSSTLTLSKADYEKHKVYACEVTHQGLSSPVTKSFNRGEC
notes: also called 1-64; copies: 2 + 2
B3: anti-CD20 human IgG1 L234H/L235G/G236R (antibody)
heavy: QVQLQQPGAELVKPGASVKMSCKASGYTFTSYNMHWVKQTPGRGLEWIGAIYPGNGDTSYNQKFKGKATLTADKSSSTAYMQLSSLTSEDSAVYYCARSTYYGGDWYFNVWGAGTTVTVSSASTKGPSVFPLAPSSKSTSGGTAALGCLVKDYFPEPVTVSWNSGALTSGVHTFPAVLQSSGLYSLSSVVTVPSSSLGTQTYICNVNHKPSNTKVDKKVEPKSCDKTHTCPPCPAPEHGRGPSVFLFPPKPKDTLMISRTPEVTCVVVDVSHEDPEVKFNWYVDGVEVHNAKTKPREEQYNSTYRVVSVLTVLHQDWLNGKEYKCKVSNKALPAPIEKTISKAKGQPREPQVYTLPPSRDELTKNQVSLTCLVKGFYPSDIAVEWESNGQPENNYKTTPPVLDSDGSFFLYSKLTVDKSRWQQGNVFSCSVMHEALHNHYTQKSLSLSPGK
light: QIVLSQSPAILSASPGEKVTMTCRASSSVSYIHWFQQKPGSSPKPWIYATSNLASGVPVRFSGSGSGTSYSLTISRVEAEDAATYYCQQWTSNPPTFGGGTKLEIKRTVAAPSVFIFPPSDEQLKSGTASVVCLLNNFYPREAKVQWKVDNALQSGNSQESVTEQDSKDSTYSLSSTLTLSKADYEKHKVYACEVTHQGLSSPVTKSFNRGEC
notes: also called 1-65; copies: 2 + 2

The assay addresses T1, Histidine-tagged recombinant human FcγRI (CD64) (human, UniProt P12314 16-288).
T1 construct: bought; also called Sino Biological Cat. No. 12056-H08H
Description: SPR, culture supernatant, captured His-FcγRI.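 Also: biacore T200 SPR at 25 °C, anti-His capture, supernatants of HEK293 cells expressing IgG1 Fc variants injected 1 min, reference-subtracted response read 55 s after injection start.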 A general note: Surface plasmon resonance follows binding to a sensor surface in real time, without labels.
Take B1: the Mean binding response came out at 38.5 RU.
For the molecule B2, the Mean binding response is 22.8 RU.
In the case of B3, the Mean binding response turned out to be 31.6 RU.
